These results are taken from US20130230453A1, “DIAGNOSIS AND TREATMENT OF BRAIN TUMORS” (Welcome Receptor Antibodies Pty Ltd, priority 2010, published 2013).

For assay [1], the target named is T1, CTR (Homo sapiens, UniProt P30988).
T1 construct: cMyc; expressed in transfected cells
T1 sequence (P30988 25-474): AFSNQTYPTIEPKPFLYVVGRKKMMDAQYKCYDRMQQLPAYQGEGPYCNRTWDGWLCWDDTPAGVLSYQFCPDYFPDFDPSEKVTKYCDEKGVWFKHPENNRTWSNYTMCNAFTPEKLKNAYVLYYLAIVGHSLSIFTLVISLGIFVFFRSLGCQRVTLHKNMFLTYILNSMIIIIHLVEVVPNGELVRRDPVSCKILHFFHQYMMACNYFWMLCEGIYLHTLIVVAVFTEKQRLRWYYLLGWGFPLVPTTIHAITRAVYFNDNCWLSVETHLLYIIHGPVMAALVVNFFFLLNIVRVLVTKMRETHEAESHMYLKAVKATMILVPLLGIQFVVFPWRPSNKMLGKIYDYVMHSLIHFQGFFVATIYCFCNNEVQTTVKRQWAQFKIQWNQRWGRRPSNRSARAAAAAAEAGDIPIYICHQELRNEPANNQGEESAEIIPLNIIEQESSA
Nature of the assay: Inhibition of phosphorylation of ERK1/2 in GBM cell line A172. Type of assay: cell-based. The settings on record: 10^−6M sCT (8-32). An excerpt: FIG. 6. […] (C) is an immunoblot of a crude membrane preparation from the cell line A172 and probed with the anti-CTR antibody MCA2191.
(§1) The glioblastoma cell line A172 was maintained in DMEM/10% FBS.
FIG. 6 illustrates the concentration response curves and immunoblot for the GBM cell line A172.

Assay [2] has as its target T1, CTR. Briefly: Stimulation of cAMP production (adenylyl cyclase activity) in GBM cell line A172. It counts as cell-based. The following applies: 10^−6M sCT (8-32).
Text: FIG. 6. […]. (C) is an immunoblot of a crude membrane preparation from the cell line A172 and probed with the anti-CTR antibody MCA2191.
as §1
FIG. 6 illustrates the concentration response curves and immunoblot for the GBM cell line A172. […]. The stimulation was inhibited by the antagonist 10^−6M sCT (8-32). In immunoblots (C) of whole cell lysates of A172 probed with the anti-CTR antibody MCA2191, there is a minor band that runs with a mobility of ˜70 kD and a major band at 52 kD.

Assay [3] concerns the target human calcitonin receptor, endogenous (GBM tissue, A172 glioblastoma cell line) (human) (UniProt P30988). Nature of the assay: cell-based or functional assay. The settings on record: scale: log EC50.
The subject of the next assay is breast cancer xenograft. The settings on record: mouse xenograft models of breast cancer; administration of calcitonin; cited from earlier work.
A further assay has as its system T47D. The following applies: cancer cell lines such as T47D; cited from earlier work.

Entries after “also recorded” stand apart in the source; their conditions may differ. No end group written: not given here.

Consider “sCT (8-32): antagonist (also called inverse agonist) of CTR (VLGKLSQELHKLQTYPRTNTGSGTP)”, for which the “effect on the hCT inhibition of ERK1/2 phosphorylation” value with CTR [1] was “inhibited; also recorded: antagonised”. In addition, the “effect on the hCT stimulation of adenylyl cyclase activity” value with CTR [2] is given as “inhibited”.

For “human CT (from UniProt P01258 85-116) (ligand)”, in assay [3], the log EC50, inhibition of phosphorylation of ERK1/2 in the GBM cell line A172 was -10.5 and the log EC50, stimulation of adenylyl cyclase activity (cAMP production) in the GBM cell line A172 is -9.9.

Consider “calcitonin (CGNLSTCMLGTYTQDFNKFHTFPQTAIGVGAP; ends and bridges not checked; cysteine pairing not given here; UniProt P01258 85-116, looked up) [calcitonin (CT), calcitonin receptor agonist]”, for which, in the assay with breast cancer xenograft, the tumor volume result was “significantly reduced”. Moreover, the cell proliferation entry in the assay on T47D is given as “inhibits cell proliferation”.
